Source: patent publication US20140127212A1 (AstraZeneca / MedImmune, published 2014)

Molecular target: T1, cynomolgus IgE (recombinant chimaeric D12 variable region and cynomolgus IgE constant region) (cynomolgus monkey (constant region); …)
T1 construct: The entries may hold a leader peptide; also called cyno IgE; cynomolgus monkey IgE
Assay: HTRF competition; scFv titrated vs Eu-cryptate cynomolgus IgE binding to human FcεRI-Fc; geomean

T1 sequence (heavy, as listed by the source limits assumed, chain 1 of 2): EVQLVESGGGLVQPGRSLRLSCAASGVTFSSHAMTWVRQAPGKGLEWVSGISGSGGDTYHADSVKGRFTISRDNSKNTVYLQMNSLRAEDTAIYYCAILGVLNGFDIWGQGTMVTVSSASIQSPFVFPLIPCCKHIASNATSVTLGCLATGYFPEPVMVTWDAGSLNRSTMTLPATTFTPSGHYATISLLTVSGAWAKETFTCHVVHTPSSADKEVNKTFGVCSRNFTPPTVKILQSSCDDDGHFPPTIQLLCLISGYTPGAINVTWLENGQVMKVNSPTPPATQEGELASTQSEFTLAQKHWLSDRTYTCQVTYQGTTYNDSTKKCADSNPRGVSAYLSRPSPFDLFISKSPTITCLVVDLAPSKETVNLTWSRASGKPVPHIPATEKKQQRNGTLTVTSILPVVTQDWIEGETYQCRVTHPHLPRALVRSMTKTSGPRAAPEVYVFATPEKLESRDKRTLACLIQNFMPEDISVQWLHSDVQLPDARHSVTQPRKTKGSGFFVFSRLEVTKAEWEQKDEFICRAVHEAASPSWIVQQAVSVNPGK
T1 sequence (light, as listed by the source limits assumed, chain 2 of 2): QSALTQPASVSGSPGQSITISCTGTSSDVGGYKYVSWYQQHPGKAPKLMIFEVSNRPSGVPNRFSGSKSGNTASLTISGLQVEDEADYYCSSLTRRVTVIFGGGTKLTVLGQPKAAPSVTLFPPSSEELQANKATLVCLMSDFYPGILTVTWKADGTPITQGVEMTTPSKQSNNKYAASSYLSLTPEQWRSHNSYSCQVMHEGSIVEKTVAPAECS

Binder | IC50
Antibody 2 scFv (scFv, V domains shown, Purified scFv) VH: QVQLVQSGAEVKKPGATVKLSCKVYGYIFTDYNIYWVRQAPGKGLEWMGLIDPDNGETFYAEKFQGRATMTADTSSDRAYMELTSLTFEDTATYYCATVSLRSAKGGYDYWGRGTLVTVSS VL: QSVLTQPPSVSGAPGQRVTISCTGSSSNIGAGYDVHWYQQLPGTAPKLLIYDNFNRPSGVPDRFSGSKSGTSASLAIIGLQTEDEADYYCQSYDSSLSGSLFGTGTKLTVL | 317 nM
Antibody 6 scFv (scFv, V domains shown, Purified scFv) VH: QVQLVQSGAEVKKPGATVKLSCKVYGYIFTDYNIYWVRQAPGKGLEWMGLIDPDNGETFYAEKFQGRATMTADTSSDRAYMELTSLTFEDTATYYCATVMGKWIKGGYDYWGRGTLVTVSS VL: QSVLTQPPSVSGAPGQRVTISCTGSSSNIGAGYDVHWYQQLPGTAPKLLIYDNFNRPSGVPDRFSGSKSGTSASLAIIGLQTEDEADYYCQSYDSTMRHGPFGTGTKLTVL | 11 nM
Antibody 7 scFv (scFv, V domains shown, Purified scFv) VH: QVQLVQSGAEVKKPGATVKLSCKVYGYIFTDYNIYWVRQAPGKGLEWMGLIDPDNGETFYAEKFQGRATMTADTSSDRAYMELTSLTFEDTATYYCATVTLKSAKGGYDYWGRGTLVTVSS VL: QSVLTQPPSVSGAPGQRVTISCTGSSSNIGAGYDVHWYQQLPGTAPKLLIYDNFNRPSGVPDRFSGSKSGTSASLAIIGLQTEDEADYYCQSYDSDRRNSPFGTGTKLTVL | 186 nM
Antibody 11 scFv (scFv, V domains shown, Purified scFv) VH: QVQLVQSGAEVKKPGATVKLSCKVYGYIFTDYNIYWVRQAPGKGLEWMGLIDPDNGETFYAEKFQGRATMTADTSSDRAYMELTSLTFEDTATYYCATVMGKWIKGGYDYWGRGTLVTVSS VL: QSVLTQPPSVSGAPGQRVTISCTGSSSNIGAGYDVHWYQQLPGTAPKLLIYDNFNRPSGVPDRFSGSKSGTSASLAIIGLQTEDEADYYCQSYDSPTLTSPFGTGTKLTVL | 7 nM
Antibody 15 scFv (scFv, V domains shown, Purified scFv) VH: QVQLVQSGAEVKKPGATVKLSCKVYGYIFTDYNIYWVRQAPGKGLEWMGLIDPDNGETFYAEKFQGRATMTADTSSDRAYMELTSLTFEDTATYYCATVTLKTAKGGYDYWGRGTLVTVSS VL: QSVLTQPPSVSGAPGQRVTISCTGSSSNIGAGYDVHWYQQLPGTAPKLLIYDNFNRPSGVPDRFSGSKSGTSASLAIIGLQTEDEADYYCQSYDSHKGYGGFGTGTKLTVL | 172 nM
Antibody 16 scFv (scFv, V domains shown, Purified scFv) VH: QVQLVQSGAEVKKPGATVKLSCKVYGYIFTDYNIYWVRQAPGKGLEWMGLIDPDNGETFYAEKFQGRATMTADTSSDRAYMELTSLTFEDTATYYCATVSLKSAKGGYDYWGRGTLVTVSS VL: QSVLTQPPSVSGAPGQRVTISCTGSSSNIGAGYDVHWYQQLPGTAPKLLIYDNFNRPSGVPDRFSGSKSGTSASLAIIGLQTEDEADYYCQSYDSRHHHAPFGTGTKLTVL | 63 nM
Antibody 23 scFv (scFv, V domains shown, not shown: small tags and cut ends, Purified scFv) VH: QVQLVQSGAEVKKPGATVKLSCKVYGYIFTDYNIYWVRQAPGKGLEWMGLIDPDNGETFYAEKFQGRATMTADTSSDRAYMELTSLTFEDTATYYCATVMGKWIKGGYDYWGRGTLVTVSS VL: QSVLTQPPSVSGAPGQRVTISCTGSSSNIGAGYDVHWYQQLPGTAPKLLIYDNFNRPSGVPDRFSGSKSGTSASLAIIGLQTEDEADYYCQSYDSHHLYSSFGTGTKLTVL | 6 nM
Antibody 17 scFv (scFv, V domains shown, Purified scFv) VH: QVQLVQSGAEVKKPGATVKLSCKVYGYIFTDYNIYWVRQAPGKGLEWMGLIDPDNGETFYAEKFQGRATMTADTSSDRAYMELTSLTFEDTATYYCATVTLKSAKGGYDYWGRGTLVTVSS VL: QSVLTQPPSVSGAPGQRVTISCTGSSSNIGAGYDVHWYQQLPGTAPKLLIYDNFNRPSGVPDRFSGSKSGTSASLAIIGLQTEDEADYYCQSYDSQSSTSPFGTGTKLTVL | 109 nM
Antibody 8 scFv (scFv, V domains shown, Purified scFv) VH: QVQLVQSGAEVKKPGATVKLSCKVYGYIFTDYNIYWVRQAPGKGLEWMGLIDPDNGETFYAEKFQGRATMTADTSSDRAYMELTSLTFEDTATYYCATVLGRWIKGGYDYWGRGTLVTVSS VL: QSVLTQPPSVSGAPGQRVTISCTGSSSNIGAGYDVHWYQQLPGTAPKLLIYDNFNRPSGVPDRFSGSKSGTSASLAIIGLQTEDEADYYCQSYDSPTHTSPFGTGTKLTVL | 12 nM
Antibody 14 scFv (scFv, V domains shown, Purified scFv) VH: QVQLVQSGAEVKKPGATVKLSCKVYGYIFTDYNIYWVRQAPGKGLEWMGLIDPDNGETFYAEKFQGRATMTADTSSDRAYMELTSLTFEDTATYYCATVMGKWIKGGYDYWGRGTLVTVSS VL: QSVLTQPPSVSGAPGQRVTISCTGSSSNIGAGYDVHWYQQLPGTAPKLLIYDNFNRPSGVPDRFSGSKSGTSASLAIIGLQTEDEADYYCQSYDSHHRHSPFGTGTKLTVL | 15 nM
Antibody 22 scFv (scFv, V domains shown, Purified scFv) VH: QVQLVQSGAEVKKPGATVKLSCKVYGYIFTDYNIYWVRQAPGKGLEWMGLIDPDNGETFYAEKFQGRATMTADTSSDRAYMELTSLTFEDTATYYCATVTLKSAKGGYDYWGRGTLVTVSS VL: QSVLTQPPSVSGAPGQRVTISCTGSSSNIGAGYDVHWYQQLPGTAPKLLIYDNFNRPSGVPDRFSGSKSGTSASLAIIGLQTEDEADYYCQSYDSSGGYAPFGTGTKLTVL | 68 nM
Antibody 12 scFv (scFv, V domains shown, Purified scFv) VH: QVQLVQSGAEVKKPGATVKLSCKVYGYIFTDYNIYWVRQAPGKGLEWMGLIDPDNGETFYAEKFQGRATMTADTSSDRAYMELTSLTFEDTATYYCATVMGKWIKGGYDYWGRGTLVTVSS VL: QSVLTQPPSVSGAPGQRVTISCTGSSSNIGAGYDVHWYQQLPGTAPKLLIYDNFNRPSGVPDRFSGSKSGTSASLAIIGLQTEDEADYYCQSYDSSIDHSPFGTGTKLTVL | 7 nM
Antibody 10 scFv (scFv, V domains shown, Purified scFv) VH: QVQLVQSGAEVKKPGATVKLSCKVYGYIFTDYNIYWVRQAPGKGLEWMGLIDPDNGETFYAEKFQGRATMTADTSSDRAYMELTSLTFEDTATYYCATVSLRAAKGGYDYWGRGTLVTVSS VL: QSVLTQPPSVSGAPGQRVTISCTGSSSNIGAGYDVHWYQQLPGTAPKLLIYDNFNRPSGVPDRFSGSKSGTSASLAIIGLQTEDEADYYCQSYDSEQELAPFGTGTKLTVL | 116 nM
Antibody 21 scFv (scFv, V domains shown, Purified scFv) VH: QVQLVQSGAEVKKPGATVKLSCKVYGYIFTDYNIYWVRQAPGKGLEWMGLIDPDNGETFYAEKFQGRATMTADTSSDRAYMELTSLTFEDTATYYCATVTLKSAKGGYDYWGRGTLVTVSS VL: QSVLTQPPSVSGAPGQRVTISCTGSSSNIGAGYDVHWYQQLPGTAPKLLIYDNFNRPSGVPDRFSGSKSGTSASLAIIGLQTEDEADYYCQSYDSSSQLSPFGTGTKLTVL | 65 nM
Antibody 3 scFv (scFv, V domains shown, Purified scFv) VH: QVQLVQSGAEVKKPGATVKLSCKVYGYIFTDYNIYWVRQAPGKGLEWMGLIDPDNGETFYAEKFQGRATMTADTSSDRAYMELTSLTFEDTATYYCATVMGKWIKGGYDYWGRGTLVTVSS VL: QSVLTQPPSVSGAPGQRVTISCTGSSSNIGAGYDVHWYQQLPGTAPKLLIYDNFNRPSGVPDRFSGSKSGTSASLAIIGLQTEDEADYYCQSYDSTFNHAPFGTGTKLTVL | 18 nM

Continued by falling IC50, values first:

IC50 | Binder
132 nM | Antibody 9 scFv (scFv, V domains shown, Purified scFv) VH: QVQLVQSGAEVKKPGATVKLSCKVYGYIFTDYNIYWVRQAPGKGLEWMGLIDPDNGETFYAEKFQGRATMTADTSSDRAYMELTSLTFEDTATYYCATVTLRSAKGGYDYWGRGTLVTVSS VL: QSVLTQPPSVSGAPGQRVTISCTGSSSNIGAGYDVHWYQQLPGTAPKLLIYDNFNRPSGVPDRFSGSKSGTSASLAIIGLQTEDEADYYCQSYDSPSSTSPFGTGTKLTVL
111 nM | Antibody 24 scFv (scFv, V domains shown, not shown: small tags and cut ends, Purified scFv) VH: QVQLVQSGAEVKKPGATVKLSCKVYGYIFTDYNIYWVRQAPGKGLEWMGLIDPDNGETFYAEKFQGRATMTADTSSDRAYMELTSLTFEDTATYYCATVTLKTAKGGYDYWGRGTLVTVSS VL: QSVLTQPPSVSGAPGQRVTISCTGSSSNIGAGYDVHWYQQLPGTAPKLLIYDNFNRPSGVPDRFSGSKSGTSASLAIIGLQTEDEADYYCQSYDSRNGYGGFGTGTKLTVL
110 nM | Antibody 18 scFv (scFv, V domains shown, Purified scFv) VH: QVQLVQSGAEVKKPGATVKLSCKVYGYIFTDYNIYWVRQAPGKGLEWMGLIDPDNGETFYAEKFQGRATMTADTSSDRAYMELTSLTFEDTATYYCATVLLRSAKGGYDYWGRGTLVTVSS VL: QSVLTQPPSVSGAPGQRVTISCTGSSSNIGAGYDVHWYQQLPGTAPKLLIYDNFNRPSGVPDRFSGSKSGTSASLAIIGLQTEDEADYYCQSYDSHLQLSPFGTGTKLTVL
7 nM | Antibody 13 scFv (scFv, V domains shown, Purified scFv) VH: QVQLVQSGAEVKKPGATVKLSCKVYGYIFTDYNIYWVRQAPGKGLEWMGLIDPDNGETFYAEKFQGRATMTADTSSDRAYMELTSLTFEDTATYYCATVMGKWIKGGYDYWGRGTLVTVSS VL: QSVLTQPPSVSGAPGQRVTISCTGSSSNIGAGYDVHWYQQLPGTAPKLLIYDNFNRPSGVPDRFSGSKSGTSASLAIIGLQTEDEADYYCQSYDSNILYSPFGTGTKLTVL
6 nM | Antibody 5 scFv (scFv, V domains shown, Purified scFv) VH: QVQLVQSGAEVKKPGATVKLSCKVYGYIFTDYNIYWVRQAPGKGLEWMGLIDPDNGETFYAEKFQGRATMTADTSSDRAYMELTSLTFEDTATYYCATVMGKWIKGGYDYWGRGTLVTVSS VL: QSVLTQPPSVSGAPGQRVTISCTGSSSNIGAGYDVHWYQQLPGTAPKLLIYDNFNRPSGVPDRFSGSKSGTSASLAIIGLQTEDEADYYCQSYDSTKHTSPFGTGTKLTVL
5 nM | Antibody 4 scFv (scFv, V domains shown, Purified scFv) VH: QVQLVQSGAEVKKPGATVKLSCKVYGYIFTDYNIYWVRQAPGKGLEWMGLIDPDNGETFYAEKFQGRATMTADTSSDRAYMELTSLTFEDTATYYCATVMGKWIKGGYDYWGRGTLVTVSS VL: QSVLTQPPSVSGAPGQRVTISCTGSSSNIGAGYDVHWYQQLPGTAPKLLIYDNFNRPSGVPDRFSGSKSGTSASLAIIGLQTEDEADYYCQSYDSRGGHSPFGTGTKLTVL
